Test results as given in patent publication US9907791B2, “Ron inhibitors for use in preventing and treating bone loss” (UNIVERSITY OF UTAH RESEARCH FOUNDATION, priority 2014, dated 2018).

What was measured:
[1] = tested on: MDA-MB-231 control tumor cells; experiment: Intratibial MDA-MB-231 control tumor-induced osteolysis; format: in vivo, NOD.SCID mice; conditions: treated 3 days post tumor cell injection, sacrificed 30 days
Description: (§1) All procedures involving mice and experimental protocols were approved by the Institutional Animal Care and Use Committee (IACUC) of the University of Utah. The RonTK−/− mice which reside on the FVB background, were crossed with NOD.SCID mice for an immune-compromised mouse model. As a control, wild-type FVB mice were also crossed with NOD.SCID mice. The STK−/− mice, which are on a C57BL/6 background, were compared to wild-type C57BL/6 mice as controls. Mice for all experiments were 6 to 8 weeks of age. For intratibial injections, 1×10^5 (PyMTor DU4475) or 3×10^5 (MDA-MB-231) tumor cells were resuspended in 10 μL matrigel and injected into the right tibia of anesthetized female FVB (PyMT) or NOD.SCID mice carrying various alleles of RON. Osteolysis was assessed by X-ray radiography. Dissected hindlimbs from mice sacrificed at the final time point in each experiment were placed in the Kodak In-vivo Multispectral Imaging System FX and exposed to X-ray radiography at 35 kV for 100 sec. Excess tumor tissue was removed from the bones prior to X-ray. Osteolytic lesions were quantified using Image J software (NCBI). All images were compared to the contralateral leg as an internal control.
(§2) For in vivo experiments, the OSI-296 inhibitor was dissolved in 40% Trappsol with 0.01 M HCl, and mice were treated at a concentration of 200 mg/kg daily by oral gavage. […]

[2] = tested on: MSP-overexpressing MDA-MB-231 cells; experiment: Intratibial MSP-overexpressing MDA-MB-231 tumor-induced osteolysis; format: in vivo, NOD.SCID mice; conditions: treated 3 days post tumor cell injection, sacrificed 30 days
Description: as §1, §2

c-Src = experiment: Western blot of osteoclast lysates, phospho-Src; format: cell-based, mice
Description: Cells were serum starved (0.5% FBS) for 3 hours prior to lysate collection. Inhibitors were added 1 hour prior to lysis and MSP was added 15 min prior to lysis when indicated. Cells were washed with 1×PBS and harvested in lysis buffer (25 mM Tris-HCl, pH 7.5, 0.42 M NaCl, 1.5 mM MgCl2, 0.5 mM EDTA, 1 mM DTT, 25% sucrose, and 0.1% Triton X-100) plus 100× protease arrest (Bioscience, Bozeman, Mont.) and 100× orthovanadate. Primary antibodies used for immunoblotting include: anti-MSP (Santa Cruz, sc-6090, Dallas, Tex.) at a 1:250 dilution, anti-pan Akt (Cell Signaling, #4691S, Beverly, Mass.) at a 1:1000 dilution, anti-pan Erk (Cell Signaling, #4695, Beverly, Mass.) at a 1:1000 dilution, anti-phospho Akt (Cell Signaling, #9271 L, Beverly, Mass.) at a 1:500 dilution, anti-phospho Erk (Cell Signaling, #4370S, Beverly, Mass.) at a 1:500 dilution, anti-Src (Cell Signaling, #2110, Beverly, Mass.) at a 1:500 dilution, and anti-phospho Src (Y416) (Cell Signaling, #2113, Beverly, Mass.) at a 1:500 dilution. The secondary antibodies used were HRP-conjugated anti-goat IgG (Santa Cruz, Dallas, Tex.) and anti-rabbit IgG (Santa Cruz, Dallas, Tex.). Chemiluminescent signals were detected using Immun-Star HRP (BioRad, Hercules, Calif.).

B1: muRANK-Fc: murine RANKL antagonist (Amgen) (protein)
chain: VTPPCTQERHYEHLGRCCSRCEPGKYLSSKCTPTSDSVCLPCGPDEYLDTWNEEDKCLLHKVCDAGKALVAVDPGNHTAPRRCACTAGYHWNSDCECCRRNTECAPGFGAQHPLQLNKDTVCTPCLLGFFSDVFSSTDKCKPWTNCTLLGKLEAHQGTTESDVVCSSSMTLRRPPKEAQAYLPS
modifications: left off: a dimerising Fc or GST
osteolysis from control MDA-MB-231 tumor cells [1]: reduced osteolysis
osteolysis from MSP-expressing MDA-MB-231 tumor cells [2]: did not significantly reduce
phosphorylated c-Src in WT osteoclasts (c-Src): decrease in phosphorylated c-Src
